# Numbering of substitutions follows the chain as printed. Like-named read-outs stand apart in the source and are kept apart here.
# B1: h6F12.v1 (antibody, human IgG1, kappa, N297G, V domains shown)
# VH: EVTLKESGPVLVKPTETLTLTCTVSGFSLTTYNVHWVRQPPGKALEWMGLIWNTGGTRYNSALKSRLTISKDTSKSQVVLTMTNMDPVDTATYYCARDPVPNKWHFDFWGPGTLVTVSS
# VL: DIQMTQSPSTLSASVGDRVTITCLASEDIYSNLAWYQQKPGKSPKLLIYDARSLQDGVPSRFSGSESGPEYTLTISSLQPDDFATYFCQQHHAYPFTFGQGTKVEIKR
# B2: h6F12.v3 (antibody, human IgG1, kappa, N297G, V domains shown)
# VH: B1 VH
# VL: EIVMTQSPATLSVSPGERATLSCLASEDIYSNLAWYQQKPGQSPRLLIYDARSLQDGVPARFSGSESGPEYTLTISSLQSEDFAVYFCQQHHAYPFTFGQGTKVEIKR
# B3: h6F12.v2 (antibody, human IgG1, kappa, N297G, V domains shown)
# VH: EVQLQESGPGLVKPSETLSLTCTVSGFSLTTYNVHWVRQPPGKGLEWMGLIWNTGGTRYNSALKSRLTISKDTSKSQVSLKLSSVTAADTAVYYCARDPVPNKWHFDFWGPGTLVTVSS
# VL: B1 VL
# B4: h2A10.v1 (antibody, human IgG1, kappa, N297G, V domains shown)
# VH: EVQLVESGGGLVQPGPSLRLSCTASGFDFNSYGMSWVRQAPGKGLELVADIVSKTYNYTTYYSDSVKDRFTISRDDSKSIVYLQMNSLKTEDTAVYYCTVAPGGSFDYWGQGTLVTVSS
# VL: DIQLTQSPSSLSASVGDRVTITCRASQSVSISRFNLMHWYQHKPGKQPKLLIYRASNLASGIPSRFSGSGSGTDFTLTISSLQPEDFATYYCQHSRESPWTFGGGTKVEIKR
# notes: also called humanized 2A10 version 1
# B5: h2A10.v2.5 (antibody, human IgG1, kappa, N297G, V domains shown)
# VH: B4 VH with V5L, P16G, T23A, L47W, I80T, K89R, T90A
# VL: B4 VL
# B6: h6F12.v4 (antibody, human IgG1, kappa, N297G, V domains shown)
# VH: B3 VH
# VL: B2 VL
# B7: h4A11.v7.11 (antibody, human IgG1, kappa, N297G, V domains shown)
# VH: EQQLQESGPGLVKPSETLSLTCTVTGFSLSSYTVNWVRQPAGKGLEWIGYISYGGSAYYASWANGRFTISVDSSKNQVSLKLSSVTAADTAVYFCARHMQVGGAPTGSMAAFDPWGPGTLVTVSS
# VL: EAVLTQSPGTLSLSPGERATLSCQSSQSVYNNNYLSWFQQKPGQPPRLLIYGASTLTSGVPDRFSGSGSGTDFTLTISRLEPEDFAVYYCAGGYSGSSDKYAFGGGTKVEIKR
# B8: h4A11.v7.13 (antibody, human IgG1, kappa, N297G, V domains shown)
# VH: B7 VH with V71K, V78F
# VL: B7 VL
# B9: h4A11.v7.5 (antibody, V domains shown)
# VH: B7 VH with V71K
# VL: EAVLTQSPGTLSLSPGERATLSCQSSQSVYNNNYLSWYQQKPGQPPRLLIYGASTLTSGVPDRFSGSGSGTDFTLTISRLEPEDFAVYYCAGGYSGSSDKYAFGGGTKVEIK
# Assays:
# [1] = target: T1, human TGFβ2, mature receptor-binding domain (human, UniProt P09858 303-414 (pig entry), The mature TGFβ2 is a disulfide-linked homodimer of this 112-residue chain. The 4A11 epitope spans both monomers (p-1207).); experiment: BIAcore T200
# T1 construct: Peprotech; also called TGFb2
# T1 sequence: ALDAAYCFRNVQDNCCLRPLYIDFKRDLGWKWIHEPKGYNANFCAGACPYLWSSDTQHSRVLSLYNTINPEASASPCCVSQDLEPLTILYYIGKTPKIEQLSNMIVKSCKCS
# [2] = target: T1, human TGFβ2, mature receptor-binding …; experiment: cell-based or functional assay
# [3] = target: T2, human TGFβ1, mature receptor-binding domain (human, UniProt P01137 279-390); experiment: cell-based or functional assay
# T2 sequence (P01137 279-390 limits assumed): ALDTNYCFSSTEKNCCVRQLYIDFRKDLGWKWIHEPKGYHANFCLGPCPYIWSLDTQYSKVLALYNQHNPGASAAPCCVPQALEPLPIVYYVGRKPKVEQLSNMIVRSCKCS
# [4] = target: T1, human TGFβ2, mature receptor-binding …; experiment: cell-based or functional assay; remark: listed apart in the source
# [5] = target: T3, human TGFβ3, mature dimeric form (human, UniProt P10600 301-412); experiment: cell-based or functional assay
# T3 sequence: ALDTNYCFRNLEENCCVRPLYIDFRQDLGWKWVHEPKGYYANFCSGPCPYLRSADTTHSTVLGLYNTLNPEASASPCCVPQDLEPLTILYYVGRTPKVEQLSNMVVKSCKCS
# [6] = target: T2, human TGFβ1, mature receptor-binding …; experiment: cell-based or functional assay; remark: listed apart in the source
# [7] = target: T1, human TGFβ2, mature receptor-binding …; experiment: cell-based or functional assay; remark: listed apart in the source
# [8] = target: T3, human TGFβ3, mature dimeric form; experiment: cell-based or functional assay; remark: listed apart in the source
# [9] = target: T1, human TGFβ2, mature receptor-binding …; experiment: BIAcore T200; remark: listed apart in the source
# [10] = target: T3, human TGFβ3, mature dimeric form; experiment: BIAcore T200
# [11] = target: T1, human TGFβ2, mature receptor-binding …; experiment: BIAcore T200; remark: listed apart in the source
# Experimental: (§1) For binding affinity determinations of all humanized 2A10 antibodies, Surface Plasmon Resonance (SPR) measurement with a BIAcore™-T200 instrument was used. Briefly, series S CM5 biosensor chip with protein A was first applied to capture each humanized 2A10 variant to achieve approximately 100 response units (RU) on each flow cell, following by injection of 3-fold serial dilutions of human TGFβ1, TGFβ2 or TGFβ3 (0.02 nM to 5 nM) in HBS-EP buffer (0.01M HEPES pH 7.4, 0.15M NaCl, 3 mM EDTA and 0.05% v/v surfactant P20) at 25° C. with a flow rate of 50 μl/min for kinetics measurement. Association rates (ko.) and dissociation rates (koff) were calculated using a simple one-to-one Langmuir binding model (BIAcore T200 evaluation software version 2.0) to determine the equilibrium dissociation constant (KD), which was calculated as the ratio koff/kₒₙ.
# [12] = target: T3, human TGFβ3, mature dimeric form; experiment: BIAcore T200; remark: listed apart in the source
# Experimental: as §1
# [13] = target: T3, human TGFβ3, mature dimeric form; experiment: cell-based or functional assay; remark: listed apart in the source
# [14] = target: T2, human TGFβ1, mature receptor-binding …; experiment: cell-based or functional assay; remark: listed apart in the source
# [15] = target: T1, human TGFβ2, mature receptor-binding …; experiment: cell-based or functional assay; remark: listed apart in the source
# [16] = target: T3, human TGFβ3, mature dimeric form; experiment: cell-based or functional assay; remark: listed apart in the source
# [17] = target: T1, human TGFβ2, mature receptor-binding …; experiment: BIAcore T200; remark: listed apart in the source
# Experimental: as §1
# (§2) Binding affinity determinations of all humanized 4A11 antibodies were performed using SPR measurement with a BIAcore™-T200 instrument, as described above in Example 6 ([…]).
# [18] = target: T3, human TGFβ3, mature dimeric form; experiment: BIAcore T200; remark: listed apart in the source
# Experimental: as §1, §2
# [19] = target: T2, human TGFβ1, mature receptor-binding …; experiment: cell-based or functional assay; remark: listed apart in the source
# [20] = target: T1, human TGFβ2, mature receptor-binding …; experiment: cell-based or functional assay; remark: listed apart in the source
# [21] = target: T3, human TGFβ3, mature dimeric form; experiment: cell-based or functional assay; remark: listed apart in the source
Binder,Kd [1] [pM],fold drop in blocking against r6F12 [2] [fold],HEKBlue TGFβ blocking IC50 [3] [pM],HEKBlue TGFβ blocking IC50 [4] [pM],HEKBlue TGFβ blocking IC50 [5] [pM],fold drop in binding against h4A11.v7 [9] [fold],Kd [17] [pM],Kd [18] [pM],HEKBlue TGFβ blocking IC50 [19] [pM],HEKBlue TGFβ blocking IC50 [20] [pM],HEKBlue TGFβ blocking IC50 [21] [pM],other results
B1,≤ 0.5,2.5 to 5,> 200000,20,> 200000,,,,,,,HEKBlue TGFβ blocking IC50 [6]: > 200000 pM; HEKBlue TGFβ blocking IC50 [7]: 20 pM; HEKBlue TGFβ blocking IC50 [8]: > 200000 pM
B2,≤ 0.5,,> 200000,5,> 200000,,,,,,,
B3,≤ 0.5,2.5 to 5,> 200000,10,> 200000,,,,,,,
B4,,,,,,,,,,,,binding result [9]: binds; binding result [10]: binds
B5,,,,,,,,,,,,fold drop in TGFβ3 binding against h2A10.v2 [10]: 385 fold; Kd [11]: 2820 pM; Kd [12]: 500 pM; fold loss of TGFβ3 blocking against h2A10.v2 [13]: > 10 fold; HEKBlue TGFβ blocking IC50 [14]: > 200000 pM; HEKBlue TGFβ blocking IC50 [15]: > 200000 pM; HEKBlue TGFβ blocking IC50 [16]: 27400 pM
B6,≤ 0.5,2.5 to 5,> 200000,20,> 200000,,,,,,,
B7,,,,,,6,40.1,21.4,> 200000,> 200000,3530,fold drop in binding against h4A11.v7 [10]: 2 fold; fold loss of blocking against h4A11.v7 [2]: > 2000 fold; fold loss of blocking against h4A11.v7 [13]: 118 fold
B8,,,,,,2.5,15.9,8.9,> 200000,30,50,
B9,,,,,,~2,9.2,9.3,> 200000,160,40,fold loss of blocking against h4A11.v7 [2]: ~2 fold

# From patent US20210301005A1 (Genentech, published 2021)
